This is an account of results in article PMC3942068, “Pharmacological characteristics and efficacy of a novel anti-angiogenic antibody FD006 in corneal neovascularization” (BMC Biotechnology, 2014).

For assay [1], the target named is T1, Vascular endothelial growth factor (VEGF) (Homo sapiens (assumed), UniProt P15692-4). Briefly: cell-based or functional assay.
The target in assay [2] is T1, Vascular endothelial growth factor …. Put plainly: BLI; Octet RED; anti-human IgG biosensor pre-saturated with bevacizumab or FD006 (10 ug/ml); VEGF at 10, 3 and 1 ug/ml in solution; 30°C, PBS; association 5 min, dissociation 10 min; non-linear global fit. As to conditions: both partners purified. A general note: Biolayer interferometry detects binding as a change in optical thickness at a sensor tip.

T1 sequence (P15692 whole entry): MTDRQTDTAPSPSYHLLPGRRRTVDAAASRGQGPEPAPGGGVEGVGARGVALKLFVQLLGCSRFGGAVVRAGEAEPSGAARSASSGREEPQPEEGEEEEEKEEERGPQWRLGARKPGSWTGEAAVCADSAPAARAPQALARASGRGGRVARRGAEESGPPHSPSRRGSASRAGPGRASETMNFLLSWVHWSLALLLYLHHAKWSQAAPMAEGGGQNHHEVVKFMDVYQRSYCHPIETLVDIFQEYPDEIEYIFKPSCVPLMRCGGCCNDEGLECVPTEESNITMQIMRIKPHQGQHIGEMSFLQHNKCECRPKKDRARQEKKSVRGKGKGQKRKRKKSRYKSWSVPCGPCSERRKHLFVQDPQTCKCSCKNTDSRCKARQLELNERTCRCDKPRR

B1: FD006 (antibody, V domains shown)
VH: EVQLVQSGGGLVKPGGSLRLSCAASGFTLNASWIHWVRQAPGKGLEWVGAIYPYSGYSNYADSVKGRFTISADTSKNTLYLQMNSLRAEDTAVYYCARWGHSTSPYSAMDYWGQGTLVTVSS
VL: DIVMTQSPSSLSVSLGERVTITCRASQVLSRSLAWYQQKPGKAPKLLIYAASNVASGVPSRFSGSGSGTDFTLTISSLQPEDFATYYCQQSNTSPVTFGQGTKVEIK
notes: VH of FD006; heavy chain constant region of the full IgG; VL of FD006; light chain constant region of the full IgG; also called novel anti-VEGFA IgG; anti-VEGF monoclonal antibody FD006; source: recombinant vector transfected into mammalian cells, purified; prepared in our lab
For orientation: Kd means the free concentration of one partner at which half of the binding sites on the other are occupied at equilibrium, for simple one-to-one binding. Higher therefore signals weaker binding. Usually koff stands for the rate constant with which the complex falls apart. High values mean fast dissociation, low ones slow dissociation. In general, kon refers to the second-order rate constant of association. As for B1, the “IC50 of inhibition of VEGF-induced proliferation of HUVEC (antibody pre-incubated with 10 ng/ml VEGF, 72 h, CCK8)” value in assay [1] is roughly 0.031 µg/mL. For the same molecule, in assay [2], the Kd was 0.311 nM, the koff amounted to 4.59e-05 s⁻¹ and the kon stood at 148000 M⁻¹ s⁻¹.
